Assay results published in FireProtDB (doi:10.1016/j.jmb.2003.11.050).
“And” between values parts separate entries of the source, which are not always exact repeats. Identical values can stand only once.

B1: Cold shock protein CspB, P41016 (parent)
chain: MQRGKVKWFNNEKGYGFIEVEGGSDVFVHFTAIQGEGFKTLEEGQEVSFEIVQGNRGPQAANVVKL

Variants of: B1
Conditions: Bacillus caldolyticus; pH 7; 25 °C; GdnHCl; Fluorescence; sodium cacodylate 100 mM; reversible: yes; structure 1C9O; whole UniProt chain shown

F38W
ddG of mutation (higher = less stable): -2.93 kJ/mol | denaturant m value: 1.75 kcal/mol/M | denaturant midpoint (higher = more stable): 2.18 M | unfolding free energy: 15.9 kJ/mol

E50W L66C
ddG of mutation (higher = less stable): 7.11 kJ/mol and 18.4 kJ/mol | denaturant m value: 1.97 kcal/mol/M and 1.54 kcal/mol/M | denaturant midpoint (higher = more stable): 1.64 M and 1.68 M | unfolding free energy: 13.5 kJ/mol and 10.8 kJ/mol

F38W L66C
denaturant m value: 1.97 kcal/mol/M and 1.9 kcal/mol/M and 1.54 kcal/mol/M | denaturant midpoint (higher = more stable): 2.14 M and 2.11 M and 1.83 M | unfolding free energy: 17.6 kJ/mol and 16.8 kJ/mol and 11.8 kJ/mol

E50W S24C
ddG of mutation (higher = less stable): 3.35 kJ/mol and 1.26 kJ/mol | denaturant m value: 1.64 kcal/mol/M and 1.43 kcal/mol/M | denaturant midpoint (higher = more stable): 2.09 M and 2.05 M | unfolding free energy: 14.4 kJ/mol and 12.2 kJ/mol

E50W
ddG of mutation (higher = less stable): -1.26 kJ/mol | denaturant m value: 1.69 kcal/mol/M | denaturant midpoint (higher = more stable): 2.18 M | unfolding free energy: 15.5 kJ/mol
